{
  "source": "patent US20080014143A1",
  "about": "(SANFORD BURNHAM MEDICAL RESEARCH INSTITUTE, published 2008)",
  "key": {"[1]": {"target": "purified gC1qR/p32 protein (coated onto microtiter wells) (human) (UniProt Q07021)", "experiment": "phage binding to purified p32 coated on microtiter wells, plaque assay"}, "[2]": {"target": "gC1qR/p32 at the cell surface (C8161 cells transfected with p32 cDNA; MDA-MB-435 and MDA-MB-435 S35 cells; Raji cells) (human) (UniProt Q07021)", "experiment": "inhibition of LyP-1 phage binding to Raji cells; competitor LyP-1 phage; 40 µg/ml mAb"}, "[3]": {"target": "purified gC1qR/p32 protein (coated onto microtiter wells) (human) (UniProt Q07021)", "experiment": "inhibition of phage binding to purified p32 on wells; competitor LyP-1 phage; 20 µg/ml mAb"}, "[4]": {"target": "T1, gC1qR/p32 at the cell surface (C8161 cells transfected with p32 cDNA); MDA-MB-435 and MDA-MB-435 S35 cells; … (human, UniProt Q07021 74-282)", "T1 construct": "whole, on cells; also called cell surface p32; cell surface gC1qR/p32", "T1 sequence (looked up)": "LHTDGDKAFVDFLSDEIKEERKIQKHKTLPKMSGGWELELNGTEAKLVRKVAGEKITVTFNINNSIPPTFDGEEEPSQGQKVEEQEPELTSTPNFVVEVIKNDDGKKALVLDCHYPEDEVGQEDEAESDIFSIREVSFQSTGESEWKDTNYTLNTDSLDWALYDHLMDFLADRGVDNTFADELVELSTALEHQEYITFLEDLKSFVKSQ", "experiment": "FACS of FITC-peptide on live MDA-MB-435 cells transfected with p32 siRNA or control siRNA", "method": "48 hours after transfection, inhibition of p32 expression was checked by immunoblot analysis and immunostaining (upper panels). β-actin was used as a control. (Lower panels) cells transfected with p32 siRNA or control siRNA were incubated for 1 h at 4 °C in the presence of 10 μM FITC conjugated LyP-1 peptide or a control peptide, […] (ARAL, SEQ ID NO: 5), which has same overall charge as LyP-1. Cells incubated in the absence of peptide served as negative control. Down-regulation of p32 expression reduced LyP-1 binding to the cells (left panel), but control peptide fluorescence was unaffected (right panel). A representative experiment out of three is shown. C. […] Insertless phage was used to determine background phage binding. The results are representative of three independent experiments and are expressed as percentage of phage binding (±SD), with binding of LyP-1 phage in the presence of mIgG1 set as 100%.\nMDA-MB-435 cells were transiently transfected with gC1qR/p32-specific or control siRNAs. […] The amount of fluorescence in living cells was analyzed by FACS. Cells incubated in the absence of peptide served as FITC negative control."}, "[5]": {"target": "T2, endogenous gC1qR/p32 of tumor cells and tissues (extracts of MDA-MB-435 cells, BT549 cells, MDA-MB-435 tumor … (human, UniProt Q07021 74-282))", "T2 construct": "mature; 33 kD band in cell extracts; in tumor xenograft extracts an additional 75 kD band was also identified as gC1qR/p32; also called gC1q/p32 receptor; p32/p33/gC1qR/HABP1", "T2 sequence (looked up)": "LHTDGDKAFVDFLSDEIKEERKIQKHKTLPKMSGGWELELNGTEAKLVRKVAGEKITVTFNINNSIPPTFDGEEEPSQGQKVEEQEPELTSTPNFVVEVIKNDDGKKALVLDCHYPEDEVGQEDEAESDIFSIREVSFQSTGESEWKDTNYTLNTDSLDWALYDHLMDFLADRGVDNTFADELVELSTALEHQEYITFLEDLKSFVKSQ", "experiment": "pull-down from MDA-MB-435 cell extract with biotinylated peptide on streptavidin beads, anti-p32 immunoblot", "text": "A tumor homing peptide, CREKA (SEQ ID NO: 3), and a peptide CRV which resembles Lyp-1 in its amino acid composition and cyclic structure (SEQ ID NO: 4, […]), were used as negative controls. (a) Left panel: silver staining of Lyp-1 bound proteins. The arrow indicates a specific 33 kD band, which was identified as gC1q/p32R by mass spectrometry. Right panel: immunoblot of total cell extract (Tot lysate) and proteins bound to Lyp-1 and control peptides using a monoclonal antibody against gC1q/p32 receptor. The antibody recognizes a band of 33 kD in the total proteins lysate and in the Lyp-1 pull down. Anti gC1q/p32 receptor reactive bands are not detected in the pull downs from both control peptides. […] The monoclonal antibody against gC1qR/p32 recognized a 75 kD and a 33 kD band only in the Lyp-1 peptide pull down (b-right panel).\nA tumor homing peptide, CREKA (SEQ ID NO:3), and a peptide CRV which resembles Lyp-1 in its amino acid composition and cyclic structure (SEQ ID NO:4, […]), were used as negative controls. The Lyp-1 bound proteins were visualized using silver staining and immunobloting. […] The arrow indicates a specific 33 kD band, which was identified as gC1qR/p32 by mass spectrometry. […] The antibody recognizes a band of 33 kD in the total proteins lysate and in the Lyp-1 pull down. Anti gC1qR/p32 reactive bands are not detected in the pull downs from both control peptides."}},
  "note": "Bridge positions count the residues as written; N and C are the ends. Ends that are not written are not given here.",
  "data": [
    {"molecule": "LyP-1 phage (phage displaying the LyP-1 peptide)", "values": [
      {"measurement": "fold binding over insertless control phage", "setting": "[1]", "value": 60, "unit": "fold"}
    ]},
    {"molecule": "mouse monoclonal anti-gC1qR/p32 antibody 60.11", "values": [
      {"measurement": "percent reduction of LyP-1 binding", "setting": "[2]", "value": 50, "unit": "%"},
      {"measurement": "percent reduction of LyP-1 phage binding", "setting": "[3]", "value": 90, "unit": "%"}
    ]},
    {"molecule": "ARALPSQRSR (also: FITC conjugated, site not given here, Same overall charge as LyP-1)", "note": "[FITC conjugated control peptide ARALPSQRSR]", "values": [
      {"measurement": "binding result", "setting": "[4]", "value": "no binding (tested: 10 µM)"}
    ]},
    {"molecule": "CRVRTRSGC (disulfide 1-9 (inferred); also: biotinylated, site not given here, Negative control in the pull-down; also called control peptide)", "note": "[biotinylated CRV peptide (CRVRTRSGC)]", "values": [
      {"measurement": "binding result", "setting": "[5]", "value": "no binding"}
    ]},
    {"molecule": "CREKA (also: biotinylated, site not given here, Negative control in the pull-down; also called control peptide)", "note": "[biotinylated CREKA peptide]", "values": [
      {"measurement": "binding result", "setting": "[5]", "value": "no binding"}
    ]}
  ]
}
